Reference: patent US20160369002A1

Columns and labels:
Assay in all cases: SPR; set-up for the IgG1 comparator not stated
Human CD16a (human) = Human CD16a (human) (UniProt P08637)
Human CD32b (human) = Human CD32b (human) (UniProt P31994)
Human CD16b (human) = Human CD16b (human) (UniProt O75015)
Human CD64 (human) = Human CD64 (human) (UniProt P12314)
Human CD32a (human) = Human CD32a (human) (UniProt P12318)
Sequence of Human CD32a (human) (P12318 36-218 limits assumed): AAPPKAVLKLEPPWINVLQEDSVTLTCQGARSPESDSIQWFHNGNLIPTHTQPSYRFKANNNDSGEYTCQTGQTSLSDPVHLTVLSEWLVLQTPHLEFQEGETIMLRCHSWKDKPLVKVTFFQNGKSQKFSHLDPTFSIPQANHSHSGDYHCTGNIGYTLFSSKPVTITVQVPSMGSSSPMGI

Sequence of Human CD64 (human) (P12314 16-288 limits assumed): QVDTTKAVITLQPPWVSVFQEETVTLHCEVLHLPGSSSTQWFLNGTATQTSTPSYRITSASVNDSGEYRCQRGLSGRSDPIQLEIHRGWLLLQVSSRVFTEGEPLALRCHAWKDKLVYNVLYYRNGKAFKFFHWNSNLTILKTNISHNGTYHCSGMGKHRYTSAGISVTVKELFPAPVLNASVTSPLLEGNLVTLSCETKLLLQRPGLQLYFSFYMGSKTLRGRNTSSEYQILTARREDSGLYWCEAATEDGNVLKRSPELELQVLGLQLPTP
Sequence of Human CD16a (human) (P08637 17-208 limits assumed): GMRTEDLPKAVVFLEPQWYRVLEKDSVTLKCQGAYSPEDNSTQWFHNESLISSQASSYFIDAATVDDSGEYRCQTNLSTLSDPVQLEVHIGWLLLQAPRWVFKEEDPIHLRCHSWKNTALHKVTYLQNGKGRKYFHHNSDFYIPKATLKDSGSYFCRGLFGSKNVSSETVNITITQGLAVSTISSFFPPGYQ
Sequence of Human CD32b (human) (P31994 46-217 limits assumed): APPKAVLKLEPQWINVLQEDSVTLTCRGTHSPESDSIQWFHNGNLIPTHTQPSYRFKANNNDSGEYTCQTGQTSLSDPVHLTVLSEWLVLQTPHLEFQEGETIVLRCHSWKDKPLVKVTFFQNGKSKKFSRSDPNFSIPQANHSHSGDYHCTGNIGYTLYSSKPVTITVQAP
Sequence of Human CD16b (human) (O75015 17-200 limits assumed): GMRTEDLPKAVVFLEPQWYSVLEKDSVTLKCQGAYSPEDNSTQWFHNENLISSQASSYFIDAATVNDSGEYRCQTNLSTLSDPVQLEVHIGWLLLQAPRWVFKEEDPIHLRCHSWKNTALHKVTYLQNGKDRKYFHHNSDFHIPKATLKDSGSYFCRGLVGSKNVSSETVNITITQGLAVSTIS

Full length human IgG1 antibody
Kd (Human CD16a (human)): 630 nM
Kd (Human CD32b (human)): 1180 nM
Kd (Human CD16b (human)): 2410 nM
Kd (Human CD64 (human)): 0.24 nM
Kd (Human CD32a (human)): 379 nM
